Target: mTORΔN-mLST8 mTORΔN (Homo sapiens, UniProt P42345)
Assay: kinase inhibition assay

Ki: ~52 µM
B1: PRAS40 114-256 (protein)
chain: not shown

Reference: publication PMC5750076 (2017)
